The target in test [1] is T1, MBP-PHAX103–196 (wild type) (human, UniProt Q9H814 103-196).
T1 chain: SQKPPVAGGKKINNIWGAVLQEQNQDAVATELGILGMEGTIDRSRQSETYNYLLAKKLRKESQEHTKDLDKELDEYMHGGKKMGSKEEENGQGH
The experiment in a line: ITC. Background: Isothermal titration calorimetry measures the heat released or taken up as one component is titrated into another.

In test [2] the target is T1, MBP-PHAX103–196 (wild type). The experiment in a line: ITC; CBC bound to m7GpppG.
In test [3] the target is MBP-PHAX103–196 R147E, Y152E, Y154E (human, UniProt Q9H814 103-196, R147E | Y152E | Y154E). The experiment in a line: ITC; CBC bound to m7GpppG.

B1: Human nuclear cap-binding complex (CBC): CBP80ΔNLS with CBP20 (complex)
chain 1: KTSDANETEDHLESLICKVGEKSACSLESNLEGLAGVLEADLPNYKSKILRLLCTVARLLPEKLTIYTTLVGLLNARNYNFGGEFVEAMIRQLKESLKANNYNEAVYLVRFLSDLVNCHVIAAPSMVAMFENFVSVTQEEDVPQVRRDWYVYAFLSSLPWVGKELYEKKDAEMDRIFANTESYLKRRQKTHVPMLQVWTADKPHPQEEYLDCLWAQIQKLKKDRWQERHILRPYLAFDSILCEALQHNLPPFTPPPHTEDSVYPMPRVIFRMFDYTDDPEGPVMPGSHSVERFVIEENLHCIIKSHWKERKTCAAQLVSYPGKNKIPLNYHIVEVIFAELFQLPAPPHIDVMYTTLLIELCKLQPGSLPQVLAQATEMLYMRLDTMNTTCVDRFINWFSHHLSNFQFRWSWEDWSDCLSQDPESPKPKFVREVLEKCMRLSYHQRILDIVPPTFSALCPANPTCIYKYGDESSNSLPGHSVALCLAVAFKSKATNDEIFSILKDVPNPNQDDDDDEGFSFNPLKIEVFVQTLLHLAAKSFSHSFSALAKFHEVFKTLAESDEGKLHVLRVMFEVWRNHPQMIAVLVDKMIRTQIVDCAAVANWIFSSELSRDFTRLFVWEILHSTIRKMNKHVLKIQKELEEAKEKLARQHKRRSDDDDRSSDRKDGVLEEQIERLQEKVESAQSEQKNLFLVIFQRFIMILTEHLVRCETDGTSVLTPWYKNCIERLQQIFLQHHQIIQQYMVTLENLLFTAELDPHILAVFQQFCALQA
chain 2: MSGGLLKALRSDSYVELSQYRDQHFRGDNEEQEKLLKKSCTLYVGNLSFYTTEEQIYELFSKSGDIKKIIMGLDKMKKTACGFCFVEYYSRADAENAMRYINGTRLDDRIIRTDWDAGFKEGRQYGRGRSGGQVRDEYRQDYDAGRGGYGKLAQNQ
As for B1, the results for the Kd in test [1], in test [2] and in test [3] were 1860 nM, 1450 nM and 1970 nM, respectively.

The values are drawn from article PMC12350170 (2025).
